B1: Receptor-interacting serine/threonine-protein kinase 2, residues 438 to 518; numbered along this chain, O43353 (parent)
chain: QWIQSKREDIVNQMTEACLNQSLDALLSRDLIMKEDYELVSTKPTRTSKVRQLLDTTDIQGEEFAKVIVQKLKDNKQMGLQ

Variants of: B1
Assay: abundance fitness (aPCA) (normalised: wild type 0, dead -1); higher = more abundant; growth selection in yeast, the domain comes from the species named
Conditions: Homo sapiens

Abundance fitness, by site and new letter:
L23: G -0.67, T -0.368, V -0.509, F -0.764, H -0.174, M -0.274, Q -0.424, N -0.282, A -0.397, I -0.918, S -0.616, K -0.559, E -0.445, W -0.911, R -0.695
Y37: N -0.401, I -0.401, W -0.232, K -0.412, C -0.547, H -0.568, P -0.614, M -0.788, A -0.084, Q -0.547, L -0.186, D -0.471, G -0.519, V -0.413, S -0.518
T42: E -0.158, H -0.156, A -0.069, C -0.108, I -0.225, D -0.318, F -0.243
E35: M -0.703, Q -0.233, W -0.252, K 0.024, V -0.408, N -0.521, I -1.12, A -0.223, Y -0.514, R -0.043, F -0.693, D -0.142, P -0.304, G -0.256, H 0.055, T -0.118
S28: F -0.665, K 0.095, V -0.175, W -0.527, I -0.475, M -0.259, Y -0.26, Q 0.041, D -0.36, R -0.082, L -0.204, P -0.847, G -0.363, T -0.165, H -0.25, E 0.03, C -0.283
D24: H -0.574, E 0.034, C -0.337, K -0.328, F -0.779, Y -0.221, V -0.434, G -0.692, A -0.106, S -0.19, M -0.719, W -0.881, R -0.169, L -0.569, T -0.28, P -0.68
S41: Q 0.139, Y -0.117, P -0.599, W -0.466, A -0.007, E -0.259, V 0.11, K 0.158, L 0.069, R 0.046, D -0.448, T -0.004, M 0.166, G -0.295, I 0.09, N 0.094, C -0.042
R29: P -0.433, Q -0.059, C -0.403, L 0.01, Y -0.321, E -0.152, W -0.575, G -0.238, T -0.438, F 0.192, I -0.88, H -0.345, S -0.297, N -0.044, K 0.002, V -0.66, M -0.076
L27: Y -0.069, G -0.609, D -0.198, A -0.251, R -0.157, M 0.128, Q -0.293, N -0.395, F -0.353, V -0.067, P -0.328, T -0.355, H -0.284, S -0.104, C -0.668, K -0.041
A25: P -0.737, W -0.969, G -0.451, V -0.133, L -0.303, F -0.052, T -0.174, Q -0.43, K -0.732, R -0.592, E 0.183, N -0.343, D -0.088, H -0.225, S -0.233, I -0.339
V40: W -1.04, H 0.095, P -0.732, E -0.682, L -0.701, I 0.146, T -0.997, F -0.436, C -0.302, M -0.815, G -0.715, R -0.836, A -0.528, D -0.754, S -0.603, N -0.466, Y -0.438
D36: C -0.839, Q 0.121, S -0.551, E -0.147, Y -0.608, W -1.04, K -0.545, H -0.194, P -0.459, R -0.718, G -0.551, L -0.791, N -0.678, V -0.587, T -0.244, M -0.711, A -0.267
M33: I -0.075, A 0.199, S 0.195, Q 0.145, E 0.067, C 0.115, K -0.088, Y -0.439, N -0.132, P -0.039, L 0.059, F -0.555, T 0.247, W -0.646, R 0.141
K34: D -0.448, T -0.515, P 0.024, V -0.242, W -0.243, M -0.312, G -0.357, C -0.199, L -0.079, A -0.094, F -0.191, H -0.528, E 0.024, S -0.23, R -0.124
L31: K -0.574, M -0.204, N -0.782, H -0.448, G -0.798, D -0.456, R -0.732, I -0.973, A -0.615, F -0.74, V -0.588, P -0.588, S -0.608, W -0.949, Y -0.601
S22: Q -0.796, R -1.05, F -0.945, D -0.386, C -0.017, V 0.1, A 0.066, L -0.057, G -0.5, I 0.565, P -0.621, N -0.71, Y -0.911
E38: W -0.12, I 0.053, N -0.463, Y -0.237, M -0.088, V -0.226, S -0.375, K -0.216, F -0.221, T -0.157, G -0.509, A -0.129, R -0.227, L -0.075, H -0.06, C -0.719, Q -0.165
Q21: S -0.141, Y -0.313, T -0.344, R -0.286, P -0.793, W -1.07, V -0.382
D30: R -0.036, N -0.401, Q -0.073, G 0.122, E -0.03, S -0.166, W -1.12, A -0.106, L -0.615, Y -0.84, M -0.814, P -1.08, C -0.332, V -0.657, H 0.045, K 0.06
I32: M -0.183, F -0.842, Q -0.273, H -0.527, T -0.594, E -0.731, C -0.679, V -0.373, R -0.592, P -0.437, A -0.686, W -0.442, G -0.707, L -0.029, K -0.94, S -0.593
L39: C -0.379, M -0.218, E -0.003, A 0.092, N -0.034, S -0.138, V -0.199, F -0.436, D -0.194, R 0.015, G -0.34, I -0.352, P -0.635, W -0.815, K 0.119, Y -0.407, H -0.107
L26: P -0.374, E -0.364, S -0.419, V -0.649, H -0.289, D -0.833, M -0.662, R -0.425, G -0.572, W -1.02, C -0.618, F -1.03, A -0.313, Q -0.31, T -0.657, Y -0.879, K -0.374
